Data: the nanobody polyreactivity screen of Harvey et al. (2022)

Experiment: yeast display, Sf9 membrane polyspecificity reagent, FACS + sequencing; frameworks hold sequencing errors
Method in brief: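 After 36–48 hours of galactose induction, yeast (Saccharomyces cerevisiae BJ5465) displaying a synthetic nanobody library were stained at 4 °C for 1 hour with 10% biotinylated, detergent-solubilized Sf9 membrane reagent. Streptavidin microbeads enriched the stained cells before FACS sorting into low and high (top ~1%) gates on anti-HA and streptavidin fluorescence. Each clone's polyreactivity label reflects its gate of origin.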

| Sequence | polyreactivity (PSR sort gate) |
| --- | --- |
| QVQLVESGGGLVQAGGSLRLSCAASGRTFSRNAMGWYRQAPGKERELVAAITYSGGTTYYADSVKGRFTISRDNAKNTVYLQMNSLKPEDTAVYYCATPSRKSGVGYPSYNYWGQGTQVTVSS | high polyreactivity |
| QVQLVESGGGLVQAGGSLRLSCAASGRTFSRNAMGWYRQAPGKERELVATITSDGSTNYADSVKGRFTISRDNAKNTVYLQMNSLKPEDTAVYYCAAGEQSSIIGAHDYWGQGTQVTVSS | low polyreactivity |
| QVQLVESGGGLVQAGGSLRLSCAASGRTFSRYAMGCYRQAPGKERELVAVITSSGASTYYADSVKGRFTISRDNAKNTVYLQMNSLKPEDTAVYYCAADRYYRGRRMNYWRQGTQVTVSS | high polyreactivity |
| QVQLVESGGGLVQAGGSLRLSCAASGRTFSRYAMGWYRQAPGKERELVAAITSGGGSTYYADSVKGRFTISRDNAKNTVYLQMNSLKPEDTAVYYCAARTSGDGWIYYYWGQGTQVTVSS | high polyreactivity |
| QVQLVESGGGLVQAGGSLRLSCAASGRTFSRYAMGWYRQAPGKERELVAGISRSGTSTYYADSVKGRFTFSRDNAKNTVYLQMNSLKPEDTAVYYCAAYYEYRRDYWGQGTQVTVSS | high polyreactivity |
| QVQLVESGGGLVQAGGSLRLSCAASGRTFSRYAMGWYRQAPGKERELVASMTRRGGRTYYADSVKGRFTISRDNAKNTVYFQMTSLKPEDTAGYYCNATSQIPWSSYYYWGQGTQVTVSS | high polyreactivity |
| QVQLVESGGGLVQAGGSLRLSCAASGRTFSRYVMGWYRQAPGKERELVAAISRTGGRTYYADSVKGRFTISRDNAKNTVYLQMNSLKPEDTAVYYCNAGTVLISTYDYWGQGTQVTVSS | high polyreactivity |
| QVQLVESGGGLVQAGGSLRLSCAASGRTFSSYAMGWYRQAPGKERELVARISSSGGRTSYADSVKGRFTISRDNAKNTVYLQMKSLKPEDTAVYYCAKTYHWLYDYWGQGTQVTVSS | high polyreactivity |
| QVQLVESGGGLVQAGGSLRLSCAASGRTFSSYTMGWYRQAPGKERELVASITNNGGSTYYADSVKGRFTISRDNEKNTVYLQMNSLKPEDTAGYYCNANSRVGLQDKKPRDYDGYDSWGQGTQVTVSS | low polyreactivity |
| QVQLVESGGGLVQAGGSLRLSCAASGRTFSTNAMGWYIQAPGKEREFVAAITGSGGSTYYADSVKGRFTISRDNAKNTVYLQMNSLKPEDTAVYYCAADRPGSRFIDVDYWGQGTQVTVSS | high polyreactivity |
| QVQLVESGGGLVQAGGSLRLSCAASGRTFSTYAMGWYRQAPGKEREMVAAISSGGGRTYYADSVKGRFTISRDYAKNTVYLQMNSLKPEDTAVYYSAADGYLRSRHGDYWGQGTQVTVSS | low polyreactivity |
| QVQLVESGGGLVQAGGSLRLSCAASGRTFSVYALGWYRPAPGKERELVAGITSGGSTNYADSVKGRFTMSRDNAKNTVYLQMNILKPEDTADYSCASENVYAVFLFVSIGDYWGQGTQETVSS | low polyreactivity |
| QVQLVESGGGLVQAGGSLRLSCAASGRTFSVYAMGWYRQAPGKERELVAAIRTSGGITYYADSVKGRFTISRDNAKNTVYLQMNSLKPEDTAVYYCAAETFRHYSYTRYYYWGQGTQVTVSS | high polyreactivity |
| QVQLVESGGGLVQAGGSLRLSCAASGRTFSVYAMGWYRQAPGKERELVARIRWSSGITYYADSVKGRFTISRDNAKNTVYLQMNSLKPEDTAVYYCAARYYTSATMDYWGQGTQVTVSS | high polyreactivity |
| QVQLVESGGGLVQAGGSLRLSCAASGRTFSVYSMGWYRQAPGKERDLVAGITGNGGSTYYADSVKGSFTISRDNAKNTVYLQMNSLKPEDTAVYYCATAYWVIITRGEYGYCGQGTQVTVSS | low polyreactivity |
| QVQLVESGGGLVQAGGSLRLSCAASGRTFSWYAMGWYRQAPGKERELVAAITRDGGNTYYADSVKGRFTISRDHAKNTVYLQMNSLKPEDTAVYYCAKRGYVNYYCGQGTQVTVSS | high polyreactivity |
| QVQLVESGGGLVQAGGSLRLSCAASGRTFSWYVMGLYRQAPGKERELVAAINSNSGSTYYADSVKGRFTISRDNAKNTVYLQMNSLKPEDTAVYYCAARAKRYNVRFDYWGQGTQVTVSS | high polyreactivity |
| QVQLVESGGGLVQAGGSLRLSCAASGRTFSYNAMGWYRQAPGKERELVAAINGDGGSTYYADSVKGRFTISRDNAKNTVYLQMNSLKPEDTAVYYCNRPRIYRYGYWGQGTQVTVSS | high polyreactivity |
| QVQLVESGGGLVQAGGSLRLSCAASGRTFSYNAMGWYRQAPGKERELVAVISASGGRTNYADSVKGRFTISRDNAKNTVYLQMNSLKPEDTAVYYCNALFGLGVKGYDYWGQGTQVTVSS | low polyreactivity |
| QVQLVESGGGLVQAGGSLRLSCAASGRTFSYNTMGWYRQAPGKERELVASISGSGGRTYYADSVKGRFTISRDNAKNTVYLQMNSLKPEDTAVYYCAARRYSRDYDYWGQGTQVTVSS | high polyreactivity |

| Sequence | polyreactivity (PSR sort gate) |
| --- | --- |
| QVQLVESGGGLVQAGGSLRLSCAASGRTFSYYAMGLYRQAPGKEREFVAAITWRGSSTYYADSVKGRFTISRDNAKNTVYLQMNSLKPEDTAVYYCNARATNVIWGRYDYWGQGTQVTVSS | high polyreactivity |
| QVQLVESGGGLVQAGGSLRLSCAASGRTFSYYAMGWYIQAPGKERELVAAITWSGASTYYADSVKGRFTISRDNAKNTVYLQMNSLKPEDTAVYYCNAGWDSGIVQSDETVYKYDYWGQGTQVTVSS | low polyreactivity |
| QVQLVESGGGLVQAGGSLRLSCAASGRTFSYYAMGWYRQAPGKERELVAAISQRGGSTYYADSVKGRFTISRDNAKNTVYLQMNSLKPEDTAVYYCAVLVSRYRYRVLDDYWGQGTQVTVSS | high polyreactivity |
| QVQLVESGGGLVQAGGSLRLSCAASGRTFSYYAMGWYRQAPGKERELVAAISRAGRTNYADSVKGRFTISRDNAKNTVYLQMHSLKPEDTAVYYCAADLAYGRPFVSYRTRDWGQGTQVTVSS | high polyreactivity |
| QVQLVESGGGLVQAGGSLRLSCAASGRTFSYYAMGWYRQAPGKERELVAAITSRGSSTYYADSVKGRFTISRDNAKNTVYLQMNSLKPEDTAVYYCAKVRPYLDTNEYYYWGQGTQVTVSS | high polyreactivity |
| QVQLVESGGGLVQAGGSLRLSCAASGRTFSYYAMGWYRQAPGKERELVATIRFSGGGTYYADSVKGRFTISRDNAKNTVYLQMNSLKPEDTAVYYCNADSIDPFLYDYWGQGTQVTVSS | low polyreactivity |
| QVQLVESGGGLVQAGGSLRLSCAASGRTFSYYTMVWYRQAPGKERELVARISNRGTNTYYADSVKGRFTISRDNAKNTVYLQMNSLKPEDTAVYYCAKYYYTSIVGYDSWGQGSQVTVSS | low polyreactivity |
| QVQLVESGGGLVQAGGSLRLSCAASGRTFTANAMGWYRQAPGKERELVAGITSRGGGTYYADSVKGRFTISRDNAKNTVYLQMNSLKPEDTAVYYCAAPYNGGGVHSYWEYDYWGQGTQVSVSS | high polyreactivity |
| QVQLVESGGGLVQAGGSLRLSCAASGRTFTAYTMGWYRQAPGKERELVASITWSGGSTYYADSVKGRFTISRDNAKNTVYLQMNSLKPEDTAVYYCATAFDYGQFQLSSEFNYWGQGTQVTVSS | low polyreactivity |
| QVQLVESGGGLVQAGGSLRLSCAASGRTFTDNAMGWYRQAPGKERELVAAISRRGGSTYYADSVKGRFTISRDNAKNTVYLQMNSLKPEVTAVYYCNTDEIAGGFPYRYYLYYGYDYWGQGTQVTVSS | low polyreactivity |
| QVQLVESGGGLVQAGGSLRLSCAASGRTFTEYAMGWYRQAPGKERELVAGIDSGSGSTYYADSVKGRFTISRDNAKNTVYLQMNSLKPEDTAVYYCAADHAYYRYDYWGQGTQVTVSS | low polyreactivity |
| QVQLVESGGGLVQAGGSLRLSCAASGRTFTGNAMGWYRQAPGKERELVAAISFSGASTYYADSVKGRFTISRDNAKNTVYLQMNSLKPEDTAVYYCNADSRYRSFDYWGQGTQVTVSS | high polyreactivity |
| QVQLVESGGGLVQAGGSLRLSCAASGRTFTGNAMGWYRQAPGKERELVAAISQRGGRTNYADSVKGRFTISRDNAKNTVYLQMHSLKPEDTAVYYCAADQSYPKRLPSFEYWGQGTQVTVSS | low polyreactivity |
| QVQLVESGGGLVQAGGSLRLSCAASGRTFTGNVMGWYRQAPGKERELVAAISRRGGITYYADSVKGRFTISRDNAKNTVYLQMNSLKPEDTAVYYCDAYSWRRQGDHYDYWGQGTQVTVSS | high polyreactivity |
| QVQLVESGGGLVQAGGSLRLSCAASGRTFTGYAMGWYRQAPGKERELVAAISASGGSTYYADSVKGRFTISRDNAKNTVYLQMNSLKPEDTAVYYCAAESWYSVLWEEGYDYWGQGTQVTVSS | low polyreactivity |
| QVQLVESGGGLVQAGGSLRLSCAASGRTFTINAMGWYRQAPGKERELVATIRSSGGSTSYADSVKGRFTISRDNAKNTVYLQMNSLKPEDTAVYYCAADGWGRYDYWGQGTQVTVSS | low polyreactivity |
| QVQLVESGGGLVQAGGSLRLSCAASGRTFTKYAMGWYRQAPGKERELVAGITRRGGNTYYADSVKGRFTISRDNAKNTVYLQMNSLKPEDTAVYYCAATLFYTGSRFRYYYWGQGTQVTVSS | high polyreactivity |
| QVQLVESGGGLVQAGGSLRLSCAASGRTFTNYAMRWYIPAPGKERELVAAAITVGGGRTYYADSVKGRFTISRENAKNTVYLQMNSLKPEDTAVYYCATDFGTYWYEYWGQGTQVTVSS | high polyreactivity |
| QVQLVESGGGLVQAGGSLRLSCAASGRTFTPNAMGWYRQAPGKEREFVAAITYSGGSTRYADSVKGRFTISRDNAKNTVYLQMNSLKPEDTAVYYCAKGYFYYVYTEDDGYWGQGTQVTVSS | low polyreactivity |
| QVQLVESGGGLVQAGGSLRLSCAASGRTFTPNGMGWYRQAPGKERELVAAITYGGGITDYADSVKGRFTTSRDNAKNTVYLQMNSLKPEDTAVYYCAATTLSFEGGKYWSKYDYWGQGTQVTVSS | low polyreactivity |
